In paper PMC8920335:

Columns and labels:
[1] = immunoblot of lysates and conditioned medium; conditions: glycan lost; control: WT CGA
[2] = immunoblot after BMA or MG132 treatment; conditions: glycan lost; control: WT CGA

Question: For “CGA (glycoprotein hormone α polypeptide): N52Q/N78Q double mutant (DM)”, which expression_or_secretion [1] is on record?
Answer: Its expression_or_secretion is “decreases”.

Question: What does the source list for “CGA (glycoprotein hormone α polypeptide): N52Q”?
Answer: degradation_or_half_life [2]: changes; expression_or_secretion [1]: decreases

Question: With “CGA (glycoprotein hormone α polypeptide): N78Q” as the sequence, how does the degradation_or_half_life [2] read?
Answer: Its degradation_or_half_life is “changes”.

Question: What about the expression_or_secretion [1] of the same sequence?
Answer: Its expression_or_secretion is “decreases”.
